This is an account of results in US20130177579A1 (BIOALLIANCE C V, published 2013).

A value given as a limit tells only on which side of the number the result lay.

For assay [1], the target named is human CD41a on platelets (human) (UniProt P08514). The assay can be described thus: FACS, platelets, donor D005, positive control. A general note: In flow cytometry, cells or beads pass a laser one at a time.
The target is the same in assay [2]. In words: FACS, platelets, donor D014, positive control.
For assay [3] the target is unchanged. In words: FACS, platelets, donor D016, positive control.
Assay [4] shares this target. In words: FACS, platelets, donor D102, positive control.
The target in assay [5] is human transferrin receptor expressed by Jurkat cells (human) (UniProt P02786). In words: FACS, Jurkat cells, 1 ug.
Sequence of human transferrin receptor expressed by Jurkat cells (human) (P02786 whole entry G142S): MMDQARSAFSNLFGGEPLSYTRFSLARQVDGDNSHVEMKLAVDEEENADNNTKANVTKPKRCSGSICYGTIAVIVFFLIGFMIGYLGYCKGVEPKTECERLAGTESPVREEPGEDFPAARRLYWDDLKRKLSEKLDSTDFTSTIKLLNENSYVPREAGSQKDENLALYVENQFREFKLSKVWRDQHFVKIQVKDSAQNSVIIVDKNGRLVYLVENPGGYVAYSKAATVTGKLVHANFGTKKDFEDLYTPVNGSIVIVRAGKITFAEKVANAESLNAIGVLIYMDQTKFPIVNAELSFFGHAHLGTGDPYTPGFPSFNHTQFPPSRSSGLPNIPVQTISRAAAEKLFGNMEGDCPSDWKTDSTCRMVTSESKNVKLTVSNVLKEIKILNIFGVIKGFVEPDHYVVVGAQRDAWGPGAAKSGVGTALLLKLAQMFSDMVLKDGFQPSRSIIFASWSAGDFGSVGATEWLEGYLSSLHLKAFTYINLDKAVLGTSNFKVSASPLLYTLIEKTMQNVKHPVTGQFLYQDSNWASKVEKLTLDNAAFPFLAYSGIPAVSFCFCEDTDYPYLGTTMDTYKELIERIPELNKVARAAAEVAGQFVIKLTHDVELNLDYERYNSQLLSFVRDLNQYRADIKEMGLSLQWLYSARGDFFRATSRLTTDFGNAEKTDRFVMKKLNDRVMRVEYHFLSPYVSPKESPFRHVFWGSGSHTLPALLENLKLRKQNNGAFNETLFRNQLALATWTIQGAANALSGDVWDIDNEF
Assay [6] concerns the target human transferrin receptor expressed by normal human cells (RBC, PMN, lymphocytes, monocytes, platelets, HUVEC) (human) (UniProt P02786). In words: FACS, HUVEC, 5 ug/ml.
Assay [7] has the same target. The assay can be described thus: FACS, PMN, donor D005.
For assay [8] the target is unchanged. In words: FACS, PMN, donor D014.
The target is the same in assay [9]. In words: FACS, PMN, donor D016.
The target is the same in assay [10]. In words: FACS, PMN, donor D102.
Assay [11] has the same target. The assay can be described thus: FACS, RBC, donor D005.
Assay [12] shares this target. In words: FACS, RBC, donor D014.
Assay [13] has the same target. In words: FACS, RBC, donor D016.
Assay [14] has the same target. The assay can be described thus: FACS, RBC, donor D102.
Assay [15] addresses human transferrin receptor expressed by nonhematopoietic cancer cells (human) (UniProt P02786). The assay can be described thus: FACS, KLE cells, 5 ug.
Assay [16] shares this target. The assay can be described thus: FACS, PC3 cells, 5 ug.
The target is the same in assay [17]. In words: FACS, A549 cells, 5 ug.
Assay [18] has the same target. In words: FACS, H358 cells, 5 ug.
Assay [19] shares this target. The assay can be described thus: FACS, H520 cells, 5 ug.
For assay [20] the target is unchanged. The assay can be described thus: FACS, H727 cells, 5 ug.
Assay [21] shares this target. In words: FACS, WiDr cells, 5 ug.
The target is the same in assay [22]. The assay can be described thus: FACS, 22Rv1 cells, 5 ug.
Assay [23] has the same target. In words: FACS, DLD-1 cells, 5 ug.
The target is the same in assay [24]. The assay can be described thus: FACS, DU145 cells, 5 ug.
Assay [25] has the same target. The assay can be described thus: FACS, OMC-3 cells, 5 ug.
For assay [26] the target is unchanged. In words: FACS, Hep G2 cells, 5 ug.
Assay [27] shares this target. In words: FACS, Panc-1 cells, 5 ug.
The target is the same in assay [28]. In words: FACS, SNU-16 cells, 5 ug.
For assay [29] the target is unchanged. In words: FACS, COLO205 cells, 5 ug.
For assay [30] the target is unchanged. In words: FACS, HEC-1-A cells, 5 ug.
The target is the same in assay [31]. The assay can be described thus: FACS, NCI-N87 cells, 5 ug.
Assay [32] shares this target. The assay can be described thus: FACS, SK-OV-3 cells, 5 ug.
Assay [33] has the same target. The assay can be described thus: FACS, Kato III cells, 5 ug.
Assay [34] shares this target. In words: FACS, SU.86.86 cells, 5 ug.
Assay [35] concerns the target human transferrin receptor expressed by normal human cells (RBC, PMN, lymphocytes, monocytes, platelets, HUVEC) (human) (UniProt P02786). The assay can be described thus: FACS, monocytes, donor D005.
The target is the same in assay [36]. In words: FACS, monocytes, donor D014.
The target is the same in assay [37]. In words: FACS, monocytes, donor D016.
For assay [38] the target is unchanged. The assay can be described thus: FACS, monocytes, donor D102.
For assay [39] the target is unchanged. In words: FACS, platelets, donor D005.
Assay [40] shares this target. The assay can be described thus: FACS, platelets, donor D014.
For assay [41] the target is unchanged. In words: FACS, platelets, donor D016.
For assay [42] the target is unchanged. In words: FACS, platelets, donor D102.
In assay [43] the target is human transferrin receptor expressed by nonhematopoietic cancer cells (human) (UniProt P02786). The assay can be described thus: FACS, MDA-MB-453 cells, 5 ug.
Sequence of human transferrin receptor expressed by nonhematopoietic cancer cells (human) (P02786 whole entry G142S): as above
The target is the same in assay [44]. In words: FACS, Panc02.03B cells, 5 ug.
In assay [45] the target is human transferrin receptor expressed by normal human cells (RBC, PMN, lymphocytes, monocytes, platelets, HUVEC) (human) (UniProt P02786). The assay can be described thus: FACS, lymphocytes, donor D005.
Sequence of human transferrin receptor expressed by normal human cells (RBC, PMN, lymphocytes, monocytes, platelets, HUVEC) (human) (P02786 whole entry G142S): as above
Assay [46] shares this target. In words: FACS, lymphocytes, donor D014.
For assay [47] the target is unchanged. The assay can be described thus: FACS, lymphocytes, donor D016.
Assay [48] shares this target. In words: FACS, lymphocytes, donor D102.
The target in assay [49] is human transferrin receptor expressed by nonhematopoietic cancer cells (human) (UniProt P02786). In words: FACS, Hep 3B2.1-7 cells, 5 ug.

Sequence of human CD41a on platelets (human) (P08514 32-1039): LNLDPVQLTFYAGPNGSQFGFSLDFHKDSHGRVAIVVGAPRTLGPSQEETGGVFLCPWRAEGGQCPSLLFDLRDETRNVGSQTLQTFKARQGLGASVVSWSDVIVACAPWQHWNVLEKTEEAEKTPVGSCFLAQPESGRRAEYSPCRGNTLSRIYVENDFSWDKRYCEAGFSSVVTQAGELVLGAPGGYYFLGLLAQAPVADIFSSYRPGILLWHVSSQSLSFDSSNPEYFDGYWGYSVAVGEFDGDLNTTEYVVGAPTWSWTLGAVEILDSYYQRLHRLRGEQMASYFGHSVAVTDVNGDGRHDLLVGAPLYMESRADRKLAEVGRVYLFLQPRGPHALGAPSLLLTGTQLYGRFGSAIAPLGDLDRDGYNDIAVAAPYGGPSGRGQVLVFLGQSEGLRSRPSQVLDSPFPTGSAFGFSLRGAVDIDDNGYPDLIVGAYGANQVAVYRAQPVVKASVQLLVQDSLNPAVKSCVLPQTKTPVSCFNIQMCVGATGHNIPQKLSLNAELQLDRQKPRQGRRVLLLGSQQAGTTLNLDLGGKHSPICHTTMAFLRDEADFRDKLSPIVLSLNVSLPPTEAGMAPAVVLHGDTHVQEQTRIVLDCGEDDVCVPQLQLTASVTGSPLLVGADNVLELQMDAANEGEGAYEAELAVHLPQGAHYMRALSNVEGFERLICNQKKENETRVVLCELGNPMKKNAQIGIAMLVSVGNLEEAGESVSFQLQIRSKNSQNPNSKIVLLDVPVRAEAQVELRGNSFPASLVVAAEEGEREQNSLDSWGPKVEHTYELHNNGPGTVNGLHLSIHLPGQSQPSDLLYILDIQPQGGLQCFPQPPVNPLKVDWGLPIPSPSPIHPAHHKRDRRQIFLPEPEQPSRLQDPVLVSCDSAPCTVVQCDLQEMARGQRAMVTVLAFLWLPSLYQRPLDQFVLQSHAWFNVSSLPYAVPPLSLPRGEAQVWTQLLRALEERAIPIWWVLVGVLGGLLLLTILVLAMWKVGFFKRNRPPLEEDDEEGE

Turning to “PE-conjugated anti-human CD41a (Southern Biotech Cat. No. 9391-09) (antibody)”, the % positive cell binding in assay [1] is 79%; in assay [2] it was 97%; in assay [3] it was 95%; in assay [4], 78%.
In turn, “anti-human transferrin receptor antibody MEM189 (Abcam Cat. No. ab1086)” registered a % of gated cells in assay [5] of 100%.
With “isotype control mouse IgM, kappa (BD Pharmingen Cat. No. 557275) (antibody)”, the % positive cell binding in assay [6] was 1%; in [7], less than 1%; in assay [8], less than 1%; in assay [9], less than 1%; in assay [10], less than 1%; in assay [11] it was less than 1%. The % positive cell binding in assay [12] is less than 1%; in [13] it was less than 1%; in [14] it was less than 1%; in assay [35], 3%; in [36] it was less than 1%; in assay [37] it was 1%. Also, the % positive cell binding was 2% in assay [38]; less than 1% in assay [39]; less than 1% in assay [40]; less than 1% in assay [41]; less than 1% in [42]; 4% in [45]. Besides, the results for the % positive cell binding in assay [46], in assay [47] and in assay [48] were 1%, 1% and 3%, respectively. Moreover, the MFI in assay [15] was 10 MFI; in assay [16], 3 MFI; in assay [17] it was 8 MFI; in assay [18], 4 MFI; in [19] it was 5 MFI; in [20], 9 MFI. Also, the MFI in [21] came out at 5 MFI; in [22] it was 7 MFI; in assay [23], 5 MFI; in assay [24], 4 MFI; in assay [25] it was 16 MFI; in assay [26], 4 MFI. Besides, the MFI in assay [27] is 6 MFI; in [28], 5 MFI; in [29] it was 3 MFI; in assay [30] it was 13 MFI; in [31] it was 33 MFI; in [32] it was 5 MFI. Further, the MFI came out at 7 MFI in [33]; 6 MFI in [34]; 4 MFI in assay [43]; 5 MFI in assay [44]; 5 MFI in assay [49].
